# Source: publication PMC9729196, “An in silico method to assess antibody fragment polyreactivity” (Nature Communications, 2022)
# B1: AT118i4h32 / wild-type human FLAG-AT1R (angiotensin II type 1 receptor) [human] (parent complex)
# chain 1: MAEVQLVESGGGLVQPGGSLRLSCAASGYIYRRYRMGWYRQAPGKGREFVAAISGGSSTNYADSVKGRFTISRDNSKNTVYLQMNSLRAEDTAVYYCAAYRIVSDPRVYWGQGTQVTVSSLE
# chain 2: MILNSSTEDGIKRIQDDCPKAGRHNYIFVMIPTLYSIIFVVGIFGNSLVVIVIYFYMKLKTVASVFLLNLALADLCFLLTLPLWAVYTAMEYRWPFGNYLCKIASASVSFNLYASVFLLTCLSIDRYLAIVHPMKSRLRRTMLVAKVTCIIIWLLAGLASLPAIIHRNVFFIENTNITVCAFHYESQNSTLPIGLGLTKNILGFLFPFLIILTSYTLIWKALKKAYEIQKNKPRNDDIFKIIMAIVLFFFFSWIPHQIFTFLDVLIQLGIIRDCRIADIVDTAMPITICIAYFNNCLNPLFYGFLGKKFKRYFLQLLKYIPPKAKSHSNLSTKMSTLSYRPSDNVSSSTKKPAPCFEVE
# Variants of: B1
# Assay: flow cytometry on cells; parent: 100; read off a plot
row,Variant,percent of parent
1,chain 1 A99H,~3 % of WT
2,chain 1 R101D,~17 % of WT
3,"chain 1 G28D, chain 1 T59I",~99 % of WT
4,chain 1 G56F,~54 % of WT
5,chain 1 R33D,~8 % of WT
6,chain 1 A98W,~22 % of WT

# The remaining lines, values ahead:
row,percent of parent,Variant
1,~12 % of WT,chain 1 Y100D
2,~48 % of WT,chain 1 Y31R
3,~41 % of WT,chain 1 S54V
4,~3 % of WT,chain 1 Y34G
